# Experimental data: paper PMC13399220
# How the values were obtained:
# [1] = biological target: IN CTD mutant (RRKAK to RAAAK) (HIV-1) (UniProt P12497); experiment: BLI; IN CTD construct (5 uM, acetate buffer pH 5) amine-coupled (EDC/NHS) to carboxyl biosensors, Imp7 in solution at 1-40 000 nM; steady-state analysis; 25 °C; GatorPrime
# [2] = biological target: C-terminal domain of HIV-1 integrase (HIV-1) (UniProt P12497); experiment: as above
substance,measurement,setting,value
Xenopus laevis importin 7 (natural protein),Kd,[1],299 nM
same,Kd,[2],17.9 nM
same,stoichiometry N,[2],1
